# What was measured:
# [1] = Kinetic parameters of LAD from various source organisms; assay type: biochemical; conditions: for Specific activity: purified N. crassa LAD
# Description: Initial rates were determined using a Varian Cary 100 Bio UV-visible spectrophotometer (Varian) at 25° C. in 50 mM Tris (pH 8.0). […] Kinetic measurements with substrate L-arabinitol and cofactor NAD^+ were taken in a 5-by-5 matrix format, with substrate and cofactor concentrations varied from below their Km to 10-fold higher than their Km. The kinetic data were analyzed with a modified version of Cleland's program (Cleland, W. W. (1979) Statistical analysis of enzyme kinetic data, Methods Enzymol 63, 103-138.). Vmax and Km for both L-arabinitol and NAD^+ were obtained by fitting the data to a sequential ordered mechanism with NAD^+ binding first, based on the proposed mechanism for sorbitol dehydrogenase (Lindstad et al. (1992) The kinetic mechanism of sheep liver sorbitol dehydrogenase, Eur J Biochem 210, 641-647.) v=VmaxAB/(KiaKB+KAB+KBA+AB) (EQ. 1)
# [2] = F59 mutant kinetic analysis, substrate L-arabinitol; assay type: biochemical; conditions: 25° C., 50 mM Tris pH 8.0, NAD+ 2 mM
# Description: (§1) Initial rates were determined using a Varian Cary 100 Bio UV-visible spectrophotometer (Varian) at 25° C. in 50 mM Tris (pH 8.0). […] This is the first reported detection of NADP^+ utilization by LAD, although it is still considered a strongly NAD^+-dependent enzyme. Kinetic measurements with substrate L-arabinitol and cofactor NAD^+ were taken in a 5-by-5 matrix format, with substrate and cofactor concentrations varied from below their Km to 10-fold higher than their Km. The kinetic data were analyzed with a modified version of Cleland's program (Cleland, W. W. (1979) Statistical analysis of enzyme kinetic data, Methods Enzymol 63, 103-138.). Vmax and Km for both L-arabinitol and NAD^+ were obtained by fitting the data to a sequential ordered mechanism with NAD^+ binding first, based on the proposed mechanism for sorbitol dehydrogenase (Lindstad et al. (1992) The kinetic mechanism of sheep liver sorbitol dehydrogenase, Eur J Biochem 210, 641-647.) v=VmaxAB/(KiaKB+KAB+KBA+AB) (EQ. 1)
# (§2) Activity assays were run for three mutants of N. crassa LAD (F59A, F59S, and F59Y) to study the effect of mutation of this active site, putative substrate binding residue homologous to tyrosine in other SDHs. […]
# [3] = F59 mutant kinetic analysis, substrate xylitol; assay type: biochemical; conditions: 25° C., 50 mM Tris pH 8.0, NAD+ 2 mM
# Description: as §1, §2
# [4] = F59 mutant kinetic analysis, substrate adonitol; assay type: biochemical; conditions: 25° C., 50 mM Tris pH 8.0, NAD+ 2 mM
# Description: as §1, §2
# [5] = Temperature dependence of LAD activity; assay type: biochemical
# Description: The optimal temperature of activity was determined by assaying LAD activities at temperatures ranging from 12 to 65° C. […] (FIG. 2A). At higher temperatures, the enzyme inactivates rapidly, and at lowered temperatures, the rate increases with temperature according to the Arrhenius equation. Utilizing the Arrhenius equation to fit the data from 12 to 30° C., the energy of activation for L-arabinitol oxidation by N. crassa LAD was determined to be 49 kJ/mol. […] Thermal inactivation of N. crassa LAD was studied by incubating at 50° C. in 50 mM Tris (pH 8.0), with samples removed at various times and assayed for activity in saturating substrate conditions.
# [6] = Thermal inactivation and storage stability of LAD; assay type: physicochemical
# [7] = pH rate profile of LAD activity; assay type: biochemical; conditions: universal buffer, 2 mM NAD+, 200 mM L-arabinitol
# Description: Activity was measured at pH values between 7.0 and 11.0 under saturating concentrations of NAD+ (2 mM) and L-arabinitol (200 mM) in a universal buffer (50 mM morpholineethanesulfonic acid (MES)/50 mM Tris/50 mM glycine). The pH range for N. crassa LAD activity was large, with >25% of the activity occurring with pH values of 7.0 to 11.0 (FIG. 2C). The pH optimum was around pH 9.5, and >60% of the activity remained in the pH span from 8.0 to 10.5.
# [8] = Effect of GST-tag removal on specific activity; assay type: biochemical; conditions: 4° C. overnight
# Text: N. crassa RNA purification, reverse-transcription PCR, cloning, and N. crassa LAD expression are described in this example. […] The reverse transcription-PCR product was subcloned into pGEX-4T-3 vector (Amersham Biosciences) using EcoRI and NotI restriction sites and was transformed into Escherichia coli BL21(DE3). This construct (pGEX-lad1) encoded N. crassa LAD as an N-terminal glutathione S-transferase (GST)-tagged fusion with a thrombin cleavage site. Cell lysates of isopropyl-β-D-thiogalactopyranoside (IPTG) induced cultures of these cells were prepared, analyzed by SDS-PAGE, and assayed for LAD activities. The construct produced soluble GST-tagged N. crassa LAD at ˜16% of the total soluble cellular proteins (FIG. 1), which was then purified in a single step with a GST-Bind kit (Novagen) according to manufacturer's protocol. […] Protein concentrations were determined by the Bradford method and by using an estimated extinction coefficient (San Diego Supercomputer Center Biology Workbench) of 35.3 mM-1 cm-1 at 280 nm with similar results. The purity of the protein was analyzed by an SDS-PAGE gel stained with Coomassie brilliant blue (FIG. 1). […]
# To determine the effect of removal of the GST-tag, the purified LAD was incubated with and without thrombin at 4° C. overnight. […] It was determined that removal of the GST-tag enhanced activity by about 65%. […]
substance,measurement,setting,value
"N. crassa LAD: NAD+-dependent L-arabinitol 4-dehydrogenase from Neurospora crassa, 363 residues, SEQ ID NO: 1, recombinantly expressed in E. coli",kcat,[1]; N. crassa LAD,"1,206 min^−1"
same,Km,"[1]; N. crassa LAD, read-out: Km,L-arabinitol",16 mM
same,Km,"[1]; N. crassa LAD, read-out: Km,NAD+",0.174 mM
same,specific activity relative to H. jecorina LAD purified from S. cerevisiae heterologous expression,[1]; greater,~20 fold
same,Specific activity,[1],about 31 U/mg
same,Specific activity,[1]; listed as N. crassa,31 U/mg
same,kcat (mean ± SD),[2],"1,210 ± 30 min^−1"
same,kcat (mean ± SD),[3],16.2 ± 0.667 s⁻¹
same,kcat (mean ± SD),[4],"1,080 ± 30 min^−1"
same,Km,[4]; read-out: Km (mean ± SD),35 ± 3 mM
same,energy of activation for L-arabinitol oxidation,[5]; Arrhenius fit of data from 12 to 30° C.,11.7 kcal/mol
same,optimum temperature of activity,"[5]; assayed from 12 to 65° C., 200 mM L-arabinitol, 2 mM NAD+",45-55 °C
same,stability to repeated freezing (in words),[6],quite stable and does not markedly lose activity when frozen repeatedly
same,activity retained,"[6]; 45° C., after 4 hr",~60%
same,storage stability (in words),[6]; room temperature and 4° C.,retained activity at room temperature for longer than one month and at 4 °C for several months
same,activity at pH values of 7.0 to 11.0,[7],> 25%
same,activity remaining in the pH span from 8.0 to 10.5,[7],> 60%
same,pH optimum,[7],~9.5 pH
same,increase of specific activity of thrombin-cleaved LAD over GST-tagged LAD,[8],about 65%

# Reference: US8114638B2, “Arabinitol dehydrogenase from Neurospora crassa” (The Board of Trustees of the University of Illinois, priority 2007, dated 2012)
